In patent US20120034160A1 (AbbVie / Abbott, published 2012):
Where a chain is given by its changes, count along the chain named. One block for each binder: values may come before it.

Tests used:
Recombinant Human IL-17 = biological target: T1, Recombinant Human IL-17 (human, UniProt Q16552 20-155, limits assumed); experiment: cell-based or functional assay
T1 sequence (looked up): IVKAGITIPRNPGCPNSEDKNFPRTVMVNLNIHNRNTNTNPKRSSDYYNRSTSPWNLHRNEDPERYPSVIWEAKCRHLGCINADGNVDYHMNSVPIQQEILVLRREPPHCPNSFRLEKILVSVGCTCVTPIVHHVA

Recombinant Human IL-1β = Recombinant Human IL-1β (human, UniProt P01584 117-269); experiment: cell-based or functional assay

B1: DVD1267 (bispecific antibody, human IgG1, kappa)
heavy: not shown
light: DIQMTQSPSSLSASVGDRVTITCRASSGIISYIDWFQQKPGKAPKRLIYATFDLASGVPSRFSGSGSGTDYTLTISSLQPEDFATYYCRQVGSYPETFGQGTKLEIKRTVAAPDTQVTQSPSSLSASVGDRVTITCITSTDIDVDMNWYQQKPGKPPKLLISQGNTLRPGVPSRFSSSGSGTDFTFTISSLQPEDFATYYCLQSDNLPLTFGQGTKLEIKRTVAAPSVFIFPPSDEQLKSGTASVVCLLNNFYPREAKVQWKVDNALQSGNSQESVTEQDSKDSTYSLSSTLTLSKADYEKHKVYACEVTHQGLSSPVTKSFNRGEC
N-terminal VD IL-17 Neutralization Assay EC50 (Recombinant Human IL-17): 10.9 pM | C-Terminal VD IL-1β Neutralization Assay EC50 (Recombinant Human IL-1β): > 40000 pM

B2: DVD1271 (bispecific antibody, human IgG1, kappa)
heavy: not shown
light: B1 light with D114E, Q116T
N-terminal VD IL-17 Neutralization Assay EC50 (Recombinant Human IL-17): 10.9 pM | C-Terminal VD IL-1β Neutralization Assay EC50 (Recombinant Human IL-1β): > 30000 pM

B4: DVD1269 (bispecific antibody, human IgG1, kappa)
heavy: not shown
light: DIQMTQSPSSLSASVGDRVTITCRASSGIISYIDWFQQKPGKAPKRLIYATFDLASGVPSRFSGSGSGTDYTLTISSLQPEDFATYYCRQVGSYPETFGQGTKLEIKRTVAAPDTVVTQSPAFLSVTPGEKVTITCITSTDIDVDMNWYQQKPDQPPKLLISQGNTLRPGVPSRFSSSGSGTDFTFTISSLEAEDAATYYCLQSDNLPLTFGQGTKLEIKRTVAAPSVFIFPPSDEQLKSGTASVVCLLNNFYPREAKVQWKVDNALQSGNSQESVTEQDSKDSTYSLSSTLTLSKADYEKHKVYACEVTHQGLSSPVTKSFNRGEC
N-terminal VD IL-17 Neutralization Assay EC50 (Recombinant Human IL-17): 8.2 pM | C-Terminal VD IL-1β Neutralization Assay EC50 (Recombinant Human IL-1β): > 45000 pM

B5: DVD1266 (bispecific antibody, human IgG1, kappa)
heavy: not shown
light: DTQVTQSPSSLSASVGDRVTITCITSTDIDVDMNWYQQKPGKPPKLLISQGNTLRPGVPSRFSSSGSGTDFTFTISSLQPEDFATYYCLQSDNLPLTFGQGTKLEIKRTVAAPDIQMTQSPSSLSASVGDRVTITCRASSGIISYIDWFQQKPGKAPKRLIYATFDLASGVPSRFSGSGSGTDYTLTISSLQPEDFATYYCRQVGSYPETFGQGTKLEIKRTVAAPSVFIFPPSDEQLKSGTASVVCLLNNFYPREAKVQWKVDNALQSGNSQESVTEQDSKDSTYSLSSTLTLSKADYEKHKVYACEVTHQGLSSPVTKSFNRGEC
C-terminal VD IL-17 Neutralization Assay EC50 (Recombinant Human IL-17): 15 pM | N-Terminal VD IL-1β Neutralization Assay EC50 (Recombinant Human IL-1β): 327 pM

B8: DVD1264 (bispecific antibody, human IgG1, kappa)
heavy: not shown
light: DIQMTQSPSSLSASVGDRVTITCRASGNIHNYLTWYQQTPGKAPKLLIYNAKTLADGVPSRFSGSGSGTDYTFTISSLQPEDIATYYCQHFWSIPYTFGQGTKLQITRTVAAPDIQMTQSPSSLSASVGDRVTITCRASSGIISYIDWFQQKPGKAPKRLIYATFDLASGVPSRFSGSGSGTDYTLTISSLQPEDFATYYCRQVGSYPETFGQGTKLEIKRTVAAPSVFIFPPSDEQLKSGTASVVCLLNNFYPREAKVQWKVDNALQSGNSQESVTEQDSKDSTYSLSSTLTLSKADYEKHKVYACEVTHQGLSSPVTKSFNRGEC
C-terminal VD IL-17 Neutralization Assay EC50 (Recombinant Human IL-17): 8.4 pM | N-Terminal VD IL-1β Neutralization Assay EC50 (Recombinant Human IL-1β): 120 pM

B10: DVD1272 (bispecific antibody, human IgG1, kappa)
heavy: not shown
light: DIQMTQSPSSLSASVGDRVTITCRASGNIHNYLTWYQQTPGKAPKLLIYNAKTLADGVPSRFSGSGSGTDYTFTISSLQPEDIATYYCQHFWSIPYTFGQGTKLQITRTVAAPEIVLTQSPDFQSVTPKEKVTITCRASQDIGSELHWYQQKPDQPPKLLIKYASHSTSGVPSRFSGSGSGTDFTLTINGLEAEDAGTYYCHQTDSLPYTFGPGTKVDIKRTVAAPSVFIFPPSDEQLKSGTASVVCLLNNFYPREAKVQWKVDNALQSGNSQESVTEQDSKDSTYSLSSTLTLSKADYEKHKVYACEVTHQGLSSPVTKSFNRGEC
C-terminal VD IL-17 Neutralization Assay EC50 (Recombinant Human IL-17): 346 pM | N-Terminal VD IL-1β Neutralization Assay EC50 (Recombinant Human IL-1β): 13.9 pM

B11: DVD1274 (bispecific antibody, human IgG1, kappa)
heavy: not shown
light: B10 light
C-terminal VD IL-17 Neutralization Assay EC50 (Recombinant Human IL-17): 1080 pM | N-Terminal VD IL-1β Neutralization Assay EC50 (Recombinant Human IL-1β): 6.8 pM

Results, then the binder that gave them:

C-terminal VD IL-17 Neutralization Assay EC50 (Recombinant Human IL-17): 3.4 pM | N-Terminal VD IL-1β Neutralization Assay EC50 (Recombinant Human IL-1β): 146 pM
B3: DVD1268 (bispecific antibody, human IgG1, kappa)
heavy: not shown
light: DTVVTQSPAFLSVTPGEKVTITCITSTDIDVDMNWYQQKPDQPPKLLISQGNTLRPGVPSRFSSSGSGTDFTFTISSLEAEDAATYYCLQSDNLPLTFGQGTKLEIKRTVAAPDIQMTQSPSSLSASVGDRVTITCRASSGIISYIDWFQQKPGKAPKRLIYATFDLASGVPSRFSGSGSGTDYTLTISSLQPEDFATYYCRQVGSYPETFGQGTKLEIKRTVAAPSVFIFPPSDEQLKSGTASVVCLLNNFYPREAKVQWKVDNALQSGNSQESVTEQDSKDSTYSLSSTLTLSKADYEKHKVYACEVTHQGLSSPVTKSFNRGEC

C-terminal VD IL-17 Neutralization Assay EC50 (Recombinant Human IL-17): 40.7 pM | N-Terminal VD IL-1β Neutralization Assay EC50 (Recombinant Human IL-1β): 265 pM
B6: DVD1270 (bispecific antibody, human IgG1, kappa)
heavy: not shown
light: B5 light with D1E, Q3T

N-terminal VD IL-17 Neutralization Assay EC50 (Recombinant Human IL-17): 1.3 pM | C-Terminal VD IL-1β Neutralization Assay EC50 (Recombinant Human IL-1β): 18400 pM
B7: DVD1273 (bispecific antibody, human IgG1, kappa)
heavy: not shown
light: EIVLTQSPDFQSVTPKEKVTITCRASQDIGSELHWYQQKPDQPPKLLIKYASHSTSGVPSRFSGSGSGTDFTLTINGLEAEDAGTYYCHQTDSLPYTFGPGTKVDIKRTVAAPDIQMTQSPSSLSASVGDRVTITCRASGNIHNYLTWYQQTPGKAPKLLIYNAKTLADGVPSRFSGSGSGTDYTFTISSLQPEDIATYYCQHFWSIPYTFGQGTKLQITRTVAAPSVFIFPPSDEQLKSGTASVVCLLNNFYPREAKVQWKVDNALQSGNSQESVTEQDSKDSTYSLSSTLTLSKADYEKHKVYACEVTHQGLSSPVTKSFNRGEC

N-terminal VD IL-17 Neutralization Assay EC50 (Recombinant Human IL-17): 2.8 pM | C-Terminal VD IL-1β Neutralization Assay EC50 (Recombinant Human IL-1β): 925 pM
B9: DVD1265 (bispecific antibody, human IgG1, kappa)
heavy: not shown
light: DIQMTQSPSSLSASVGDRVTITCRASSGIISYIDWFQQKPGKAPKRLIYATFDLASGVPSRFSGSGSGTDYTLTISSLQPEDFATYYCRQVGSYPETFGQGTKLEIKRTVAAPDIQMTQSPSSLSASVGDRVTITCRASGNIHNYLTWYQQTPGKAPKLLIYNAKTLADGVPSRFSGSGSGTDYTFTISSLQPEDIATYYCQHFWSIPYTFGQGTKLQITRTVAAPSVFIFPPSDEQLKSGTASVVCLLNNFYPREAKVQWKVDNALQSGNSQESVTEQDSKDSTYSLSSTLTLSKADYEKHKVYACEVTHQGLSSPVTKSFNRGEC
